Data taken from the supplement of paper PMC9233669.
Variants at the floor of the assay were thinned out.

Tests used:
biotinyl-Ile-oxazolone = assay: self-aminoacylation, catalytic enhancement (BIO) (fold over background); higher = more active; k-Seq, kA / k0A0; sequences stand for … in GGGAAUGGAUCCACAUCUACGAAUUC…UUCACUGCAGACUUGACGAAGCUG
Procedure, shortened: (§1)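 Mutagenized RNA pools with a 21-nt variable region (0.43 μM) were reacted with each biotinyl-aminoacyl-oxazolone at 2–1250 μM for 90 minutes at room temperature, in 50 μL HEPES/NaCl/KCl/MgCl2/CaCl2 buffer containing 5% acetonitrile at pH 6.9–7.0. RNA captured on streptavidin was quantified by triplicate qPCR and by Illumina sequencing. The fraction reacted for each sequence was fit to a pseudo-first-order model with bootstrapping, and catalytic enhancement is the median kA divided by the uncatalyzed rate, taken as the low-activity peak of a bimodal Gaussian fit.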

biotinyl-Trp-oxazolone = assay: self-aminoacylation, catalytic enhancement (BWO) (fold over background); higher = more active; k-Seq, kA / k0A0; sequences stand for … in GGGAAUGGAUCCACAUCUACGAAUUC…UUCACUGCAGACUUGACGAAGCUG
Procedure, shortened: as §1

biotinyl-Phe-oxazolone = assay: self-aminoacylation, catalytic enhancement (BFO) (fold over background); higher = more active; k-Seq, kA / k0A0; sequences stand for … in GGGAAUGGAUCCACAUCUACGAAUUC…UUCACUGCAGACUUGACGAAGCUG
Procedure, shortened: as §1

biotinyl-Met-oxazolone = assay: self-aminoacylation, catalytic enhancement (BMO) (fold over background); higher = more active; k-Seq, kA / k0A0; sequences stand for … in GGGAAUGGAUCCACAUCUACGAAUUC…UUCACUGCAGACUUGACGAAGCUG
Procedure, shortened: as §1

biotinyl-Leu-oxazolone = assay: self-aminoacylation, catalytic enhancement (BLO) (fold over background); higher = more active; k-Seq, kA / k0A0; sequences stand for … in GGGAAUGGAUCCACAUCUACGAAUUC…UUCACUGCAGACUUGACGAAGCUG
Procedure, shortened: as §1

biotinyl-Val-oxazolone = assay: self-aminoacylation, catalytic enhancement (BVO) (fold over background); higher = more active; k-Seq, kA / k0A0; sequences stand for … in GGGAAUGGAUCCACAUCUACGAAUUC…UUCACUGCAGACUUGACGAAGCUG
Procedure, shortened: as §1

Sequence	self-aminoacylation (biotinyl-Ile-oxazolone)	self-aminoacylation (biotinyl-Trp-oxazolone)	self-aminoacylation (biotinyl-Phe-oxazolone)	self-aminoacylation (biotinyl-Met-oxazolone)	self-aminoacylation (biotinyl-Leu-oxazolone)	self-aminoacylation (biotinyl-Val-oxazolone)
AAAUUCGCUAAUAGUCGCAAG [Fam3.1 aminoacylation ribozyme variant]	2.89	2.09	2.65	2.31	2.19	–
AAAUUUGCAAAUAGUCGCAAG [Fam3.1 aminoacylation ribozyme variant]	1.9	1.82	2.27	1.35	1.82	1.37
AAAUUUGCCAAUAGUCGCAAG [Fam3.1 aminoacylation ribozyme variant]	1.77	2.14	2.17	1.69	1.76	1.65
AAAUUUGCUAAUAGUCCCAAG [Fam3.1 aminoacylation ribozyme variant]	1.24	0.979	1.68	0.644	0.923	1.03
AAAUUUGCUAAUAGUCGCACG [Fam3.1 aminoacylation ribozyme variant]	1.58	1.81	1.47	1.38	1.42	1.72
AAAUUUGCUAAUAGUCGCCAG [Fam3.1 aminoacylation ribozyme variant]	2.08	2.92	4.62	1.75	1.67	2.15
AAAUUUGCUAAUAGUCGCGAG [Fam3.1 aminoacylation ribozyme variant]	2.12	2.48	1.34	2.44	2.53	1.76
AAAUUUGCUAAUAGUUGCAAG [Fam3.1 aminoacylation ribozyme variant]	1.61	1.71	1.44	1.24	1.08	1.21
AAAUUUGCUCAUAGUCGCAAG [Fam3.1 aminoacylation ribozyme variant]	1.76	1.56	2.13	2.13	1.55	1.57
AAAUUUGCUUAUAGUCGCAAG [Fam3.1 aminoacylation ribozyme variant]	2.26	2.14	2.37	1.91	1.93	1.59
AAAUUUGGUAAUAGUCGCAAG [Fam3.1 aminoacylation ribozyme variant]	2.2	2.27	2.12	1.88	1.86	1.74
AAAUUUUCUAAUAGUCGCAAG [Fam3.1 aminoacylation ribozyme variant]	2.15	–	2.42	–	2.46	2.11
AACUUAGCUAAUAGUCGCAAG [Fam3.1 aminoacylation ribozyme variant]	2.2	–	2.75	2.42	3.27	–
AACUUCGCUAAUAGUCGCAAG [Fam3.1 aminoacylation ribozyme variant]	2.98	3.06	14.5	3.5	3.44	3.03
AACUUUGCUAACAGUCGCAAG [Fam3.1 aminoacylation ribozyme variant]	2.17	2.08	2.06	2.15	3.43	–
AACUUUGCUAAUAGUCGCAAC [Fam3.1 aminoacylation ribozyme variant]	2.22	2.59	4.1	–	2.16	–
AACUUUGCUAAUAGUCGCAAG [Fam3.1 aminoacylation ribozyme variant]	2.22	2.41	3.71	2.2	2.46	–
AACUUUGCUAAUAGUCGCACG [Fam3.1 aminoacylation ribozyme variant]	2.49	3.12	3.22	–	2.15	2.05
AACUUUGCUAAUAGUCGCAUG [Fam3.1 aminoacylation ribozyme variant]	2.77	2.85	2.98	2.35	2.79	1.89
AACUUUGCUAAUAGUCGCCAG [Fam3.1 aminoacylation ribozyme variant]	2.68	2.35	10.9	2.59	3.5	2.87
AACUUUGCUGAUAGUCGCAAG [Fam3.1 aminoacylation ribozyme variant]	2.81	3.67	3.74	2.81	3.01	2.24
AACUUUGGUAAUAGUCGCAAG [Fam3.1 aminoacylation ribozyme variant]	2.58	2.24	3.84	2.22	3.08	2.15
AAGAUUACUAAUAGUCGCAAG [Fam3.1 aminoacylation ribozyme variant]	1.6	1.92	2.29	1.77	1.44	1.41

Sequence	self-aminoacylation (biotinyl-Ile-oxazolone)	self-aminoacylation (biotinyl-Trp-oxazolone)	self-aminoacylation (biotinyl-Phe-oxazolone)	self-aminoacylation (biotinyl-Met-oxazolone)	self-aminoacylation (biotinyl-Leu-oxazolone)	self-aminoacylation (biotinyl-Val-oxazolone)
AAGCGUGCUAAUAGUCGCAAG [Fam3.1 aminoacylation ribozyme variant]	2.02	2.33	4.08	2.62	–	2.05
AAGUUGGCUAAAAGUCGCAAG [Fam3.1 aminoacylation ribozyme variant]	2.01	–	3.1	–	–	–
AAGUUUCCUAAUAGUCGCAGG [Fam3.1 aminoacylation ribozyme variant]	2.09	–	11.8	2.16	2.06	–
AAGUUUGCUAAUAUUCGCGAG [Fam3.1 aminoacylation ribozyme variant]	2.04	3.31	16.5	2.02	–	–
AAGUUUUCUAACAGUCGCAAG [Fam3.1 aminoacylation ribozyme variant]	2.04	–	3.07	–	–	–
AUCACCCUGGUCAUCAAGUGA [Fam2.1 aminoacylation ribozyme variant]	–	4.8	14.2	3.75	3.46	2.1
AUUACCCUGGUCCUGGAGUGA [Fam2.1 aminoacylation ribozyme variant]	2.07	3.33	10.7	3.13	2.79	–
AUUACCCUGGUGAGCGAGUGA [Fam2.1 aminoacylation ribozyme variant]	2.4	3.97	22.2	3.94	3.8	–
AUUCACCGAGCUCAUCGGGUG [Fam2.2 aminoacylation ribozyme variant]	2.4	–	17.4	2.08	2.46	3.41
AUUCACCUAGGACAUCGGGUA [Fam2.2 aminoacylation ribozyme variant]	2.02	2.09	7.17	2.72	2.63	–
AUUCACCUAGGUCAACGGGCG [Fam2.2 aminoacylation ribozyme variant]	2.59	–	10.4	2.85	3.24	–
AUUCACCUAGGUCAUCGCCUG [Fam2.2 aminoacylation ribozyme variant]	2.01	2.11	8.71	–	3.01	2.44
AUUCACCUAUGUCAUGGGGUG [Fam2.2 aminoacylation ribozyme variant]	–	2.69	14.1	2.89	3.16	2.07
AUUCUCCUAGGUCAUCGGGGG [Fam2.2 aminoacylation ribozyme variant]	2.7	3	–	3.48	3.88	3.29
CCAAACUUCAAGCAAUCGGGC [Fam1B.1 aminoacylation ribozyme variant]	2.08	2.01	–	2.17	–	2.26
CCACAAUUCAAGCAAUCGGGC [Fam1B.1 aminoacylation ribozyme variant]	2.22	2.04	–	2.14	–	–
CCACACCUCAAGCAUUCGGUC [Fam1B.1 aminoacylation ribozyme variant]	2.26	2.49	2.12	–	–	2.54
CCACACUUCAAGCAACCGGGC [Fam1B.1 aminoacylation ribozyme variant]	2.77	4.79	3.1	–	3.43	3.18
CCACACUUCAGGCAAUCGCUC [Fam1B.1 aminoacylation ribozyme variant]	2.5	–	17.5	–	2.71	2.04
CCAGACUUCAAGCAUUCGGUC [Fam1B.1 aminoacylation ribozyme variant]	2.03	–	–	2.12	2.08	2.16
CUACUGCAAACAUUCGGUCUG [Fam1A.1 aminoacylation ribozyme variant]	2.01	–	9.39	–	–	–
CUUCACCUAGUUCAUCGGGUG [Fam2.2 aminoacylation ribozyme variant]	2.15	2.53	–	2.54	2.87	2.27
GAGUUGGCUAAUAGUCGCAAG [Fam3.1 aminoacylation ribozyme variant]	2.02	3.02	2.86	2.04	–	2.22
